US20030211537A1

Legend:
[1] = molecular target: H278N mutant mouse delta opioid receptor (mouse) (UniProt P32300); experiment: competition vs 3H-naltrindole, COS-7 membranes
[2] = molecular target: rat µ opioid receptor (rat) (UniProt P33535); experiment: competition vs [3H]DAMGO, COS-7 membranes
[3] = molecular target: mouse kappa opioid receptor (mORK1) (mouse) (UniProt P33534); experiment: competition vs [3H]U-69,593, COS-1 membranes

Ki [2] | IC50 [3] | Substance | other results
– | – | D-Ala2-deltorphin II (peptide) | Ki [1]: 4 nM
30 nM | – | PLO17 (peptide) | –
– | 19 nM | [D-Ala2, F5Phe4]Dynorphin (1-13)NH2 (from UniProt P01213 207-219) (peptide) | –
– | 0.2 nM | [D-Ala2, F5Phe4]Dynorphin (1-17)NH2 (from UniProt P01213 207-223) (peptide) | –
0.33 nM | – | dermorphin (peptide) | –
56 nM | – | morphiceptin (peptide) | –
